Reference: the Immune Epitope Database (IEDB)

What was measured:
[1] = target: HLA-B*08:01; experiment: IEDB peptide-MHC binding, purified MHC/competitive/radioactivity; filed as Kd, often an IC50 or EC50 that approximates it; ≥ and ≤ were set here for values at or beyond the usual limits of such assays
[2] = target: HLA-A*01:01; experiment: IEDB peptide-MHC binding, purified MHC/direct/fluorescence; filed as Kd, often an IC50 or EC50 that approximates it; ≥ and ≤ were set here for values at or beyond the usual limits of such assays; conditions: source organism: Homo sapiens
[3] = target: HLA-A*11:01; experiment: as above; conditions: source organism: Homo sapiens
[4] = target: HLA-B*27:05; experiment: as above; conditions: source organism: Homo sapiens
[5] = target: HLA-A*03:01; experiment: as above; conditions: source organism: Homo sapiens
[6] = target: HLA-A*69:01; experiment: as above
[7] = target: HLA-A*32:01; experiment: IEDB peptide-MHC binding, purified MHC/competitive/radioactivity; filed as Kd, often an IC50 or EC50 that approximates it; ≥ and ≤ were set here for values at or beyond the usual limits of such assays
[8] = target: HLA-A*02:01; experiment: IEDB peptide-MHC binding, purified MHC/competitive/fluorescence; filed as Kd, often an IC50 or EC50 that approximates it; ≥ and ≤ were set here for values at or beyond the usual limits of such assays
[9] = target: HLA-B*44:02; experiment: IEDB peptide-MHC binding, purified MHC/competitive/radioactivity; filed as Kd, often an IC50 or EC50 that approximates it; ≥ and ≤ were set here for values at or beyond the usual limits of such assays
[10] = target: HLA-B*46:01; experiment: IEDB peptide-MHC binding, purified MHC/direct/fluorescence; filed as Kd, often an IC50 or EC50 that approximates it; ≥ and ≤ were set here for values at or beyond the usual limits of such assays; conditions: source organism: Yellow fever virus
[11] = target: HLA-A*30:01; experiment: IEDB peptide-MHC binding, purified MHC/competitive/radioactivity; filed as Kd, often an IC50 or EC50 that approximates it; ≥ and ≤ were set here for values at or beyond the usual limits of such assays
[12] = target: HLA-A*30:02; experiment: as above
[13] = target: HLA-A*01:01; experiment: as above
[14] = target: HLA-A*29:02; experiment: as above
[15] = target: HLA-A*26:01; experiment: as above
[16] = target: HLA-A*02:01; experiment: IEDB peptide-MHC binding, purified MHC/direct/fluorescence; filed as Kd, often an IC50 or EC50 that approximates it; ≥ and ≤ were set here for values at or beyond the usual limits of such assays
[17] = target: HLA-A*23:01; experiment: IEDB peptide-MHC binding, purified MHC/competitive/radioactivity; filed as Kd, often an IC50 or EC50 that approximates it; ≥ and ≤ were set here for values at or beyond the usual limits of such assays; conditions: source organism: SARS coronavirus Tor2
[18] = target: HLA-A*24:02; experiment: as above; conditions: source organism: SARS coronavirus Tor2
[19] = source organism: Vaccinia virus WR
[20] = source organism: Mycobacterium tuberculosis
[21] = source organism: Dengue virus 3 Martinique/1243/1999
[22] = source organism: Dengue virus 1 Brazil/97-11/1997
[23] = source organism: Dengue virus 2 Jamaica/1409/1983
[24] = source organism: Mammarenavirus machupoense
[25] = source organism: Mammarenavirus juninense
[26] = source organism: Pseudomonas aeruginosa
[27] = source organism: Giardia lamblia ATCC 50803
[28] = source organism: Lymphocytic choriomeningitis virus (strain WE)
[29] = source organism: SARS coronavirus Tor2

Sequence SMTKKFKTI has a Kd [1, 19] of 151 nM.

GRIDKPILK gave a Kd [2] of no less than 53500 nM, a Kd [3] of 8150 nM and a Kd [4] of 790 nM. It also gave a Kd [5] of 13500 nM.

FLMGFNRDV was tested, and the Kd [6, 20] was 1760 nM.

LTQKVVIFIL gave a Kd [1, 21] of 3100 nM.

In the case of RLPNLFHIL, the Kd [1, 19] is reported as 68.5 nM.

With YRIAKFLFM the Kd [1, 19] was 16.8 nM.

TPMMRHTIE gave a Kd [1, 22] of 7.23 nM.

For MTCGQPLSL, the Kd [7, 19] was 5.56 nM.

For LAGAGLAFSL, the Kd [1, 22] was 2620 nM.

KLLRRPFSL showed a Kd [1, 19] of 0.362 nM.

ETNDLVTNV gave a Kd ([8]; source organism: Variola virus) of 3240 nM.

In the case of SEVSNVQRI, the Kd ([9]; source organism: Lymphocytic choriomeningitis virus (strain Armstrong) (clone 53b)) is reported as 12 nM.

ILHLILWIL was tested, and the Kd ([8]; source organism: Influenza A virus (A/Memphis/1/1978(H1N1))) was 6000 nM.

LLHEVGITV showed a Kd [6, 20] of 1920 nM.

RTWHYCGSY gave a Kd [10] of no less than 20000 nM.

For ELINKFVEL, the Kd [1, 19] was 1040 nM.

In the case of MEIRPISEK, the Kd [9, 21] is reported as 1260 nM.

VISNLVLSY was tested, and the Kd [7, 19] was 808 nM.

Work on RTISESNTI yielded a Kd [7, 19] of 960 nM.

RPKIKTNDI showed a Kd [1, 19] of 2.11 nM.

FTFKRTSGSSV was tested, and the Kd ([8]; source organism: Influenza A virus H3N2) was 930 nM.

Work on RREEEEAGVL yielded a Kd [1, 23] of 2160 nM.

AEHSGTSHNI was tested, and the Kd [9, 22] was 48.2 nM.

For CMLNNSFYY, the Kd [11, 24] was 556 nM, the Kd [7, 24] was 10500 nM and the Kd [12, 24] was 5.46 nM. It also gave a Kd [13, 24] of 1780 nM, a Kd [14, 24] of 1.33 nM and a Kd [15, 24] of 958 nM.

For ALNHLVLSL, the Kd [7, 19] was 41.4 nM.

In the case of SIYRMSYQF, the Kd [7, 19] is reported as 0.798 nM.

In the case of GVLEEQGSFY, the Kd [11, 25] is reported as no less than 39600 nM, the Kd [7, 25] is reported as no less than 69900 nM and the Kd [12, 25] is reported as 243 nM. The Kd [13, 25] was 1640 nM, the Kd [14, 25] was 1020 nM and the Kd [15, 25] was 223 nM.

For DMYDQQLSV, the Kd [16, 26] was 262 nM and the Kd [6, 26] was 32 nM.

Sequence FLIGVYQQY has a Kd [16, 27] of no less than 20000 nM and a Kd [6, 27] of no less than 20000 nM.

RIIMLNFSI gave a Kd ([7]; source organism: Vaccinia virus Copenhagen) of no less than 77800 nM.

Sequence LTDNDDILM has a Kd [11, 28] of 19200 nM, a Kd [7, 28] of 12600 nM and a Kd [12, 28] of 587 nM. The Kd [13, 28] was 21.3 nM, the Kd [14, 28] was 9140 nM and the Kd [15, 28] was no less than 47400 nM.

VYALCTLLHL was tested, and the Kd [17] was 39.8 nM, the Kd [12, 29] was no less than 100000 nM and the Kd [13, 29] was 19900 nM. For the same sequence, the Kd [18] was 76.7 nM, the Kd [14, 29] was 5570 nM and the Kd [15, 29] was 14000 nM.

DSKEGFFTY was tested, and the Kd [17] was no less than 77800 nM, the Kd [12, 29] was 237 nM and the Kd [13, 29] was 200 nM. It also gave a Kd [18] of no less than 77600 nM, a Kd [14, 29] of 663 nM and a Kd [15, 29] of 993 nM.

TKQTGSASSM gave a Kd [1, 23] of 1440 nM.

RFLYIIKLVF showed a Kd [17] of 0.0321 nM, a Kd [12, 29] of 1190 nM and a Kd [13, 29] of 1060 nM. For the same sequence, the Kd [18] was 13.3 nM, the Kd [14, 29] was 1050 nM and the Kd [15, 29] was 16600 nM.

LLEIKDKEQY gave a Kd [17] of no less than 70000 nM, a Kd [12, 29] of 1270 nM and a Kd [13, 29] of 936 nM. For the same sequence, the Kd [18] was 10900 nM, the Kd [14, 29] was 3530 nM and the Kd [15, 29] was no less than 82800 nM.
